B4: Lot5 (residues 1-227) with N-terminal His6-TEV tag (domain or fragment, S. cerevisiae, UniProt P34234 1-227, looked up)
chain: MMKKKPKCQIARTKPSVENVIPYNQFKKTQPRFNGNFSALNNEEYIILFGGGRDLILGSLTPCSSSHLSNQANPQDTSEYGTDLFILNSCIIIWFNGLGYGLEIPYSSVLYHASRRLPDGREGLQLEILLTLERDEVLDMLYQSLAPQACEFDGEEAHAFTVRSVELTIRPKYSIYDRHYNNEIETLFTFENFGVNRGDDLVNNCNEALAVCMDLHGEDVQDQDQEQ
B5: full-length Brr1, HT-tag removed (natural protein, S. cerevisiae, UniProt Q99177 1-341, looked up)
chain: MKRGESQAPDAIFGQSRAFALSDSSVNPDVIEYLKSVRQEALRTNAISIKNHMNLQKRTRHKSSMYDDEDEGALKRHAISPSLIRLQRNVEIWVRWFNSVKATVLTNAYEFTGYEDETLDLLLLFLKNYLEDMPSKCTTVEKIISVLNQHSFPEKAEEKEENLQIDEEWAKNILVRLEKTKIDSVEDVKKVITEGDKHELVGYNQWFQYLINNEPQHTTFHEKITSKQLWVLIKYMSNTWIKEIHKKGRHYRRLQDWLFYILVHTPERVTAEYTSILRDLGKKCLELIQKKPVEAHENKITLPKEMAELNVEIPAAVENMTITELTVSVIAVNYGQKDLIE
B6: full-length Brr1 with N-terminal His6-TEV tag (natural protein, S. cerevisiae, UniProt Q99177 1-341, looked up)
chain: MKRGESQAPDAIFGQSRAFALSDSSVNPDVIEYLKSVRQEALRTNAISIKNHMNLQKRTRHKSSMYDDEDEGALKRHAISPSLIRLQRNVEIWVRWFNSVKATVLTNAYEFTGYEDETLDLLLLFLKNYLEDMPSKCTTVEKIISVLNQHSFPEKAEEKEENLQIDEEWAKNILVRLEKTKIDSVEDVKKVITEGDKHELVGYNQWFQYLINNEPQHTTFHEKITSKQLWVLIKYMSNTWIKEIHKKGRHYRRLQDWLFYILVHTPERVTAEYTSILRDLGKKCLELIQKKPVEAHENKITLPKEMAELNVEIPAAVENMTITELTVSVIAVNYGQKDLIE

Experiments:
[1] = molecular target: B4; assay: pull-down
[2] = molecular target: T1, full-length Lot5 with N-terminal His6-TEV tag (S. cerevisiae, UniProt P34234 1-306); assay: pull-down
T1 sequence (looked up): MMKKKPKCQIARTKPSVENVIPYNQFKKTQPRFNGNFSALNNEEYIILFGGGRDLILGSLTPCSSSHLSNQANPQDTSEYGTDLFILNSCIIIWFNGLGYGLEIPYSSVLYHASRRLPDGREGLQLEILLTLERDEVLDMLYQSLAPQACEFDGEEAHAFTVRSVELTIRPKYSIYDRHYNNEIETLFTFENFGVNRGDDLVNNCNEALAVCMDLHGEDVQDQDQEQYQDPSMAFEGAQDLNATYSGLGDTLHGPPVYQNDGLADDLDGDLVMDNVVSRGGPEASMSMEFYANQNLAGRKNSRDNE

[3] = molecular target: T2, Brr1Δ(122-197) with N-terminal His6-TEV tag (S. cerevisiae, UniProt Q99177 1-341, Δ(122-197)); assay: pull-down
T2 sequence (looked up): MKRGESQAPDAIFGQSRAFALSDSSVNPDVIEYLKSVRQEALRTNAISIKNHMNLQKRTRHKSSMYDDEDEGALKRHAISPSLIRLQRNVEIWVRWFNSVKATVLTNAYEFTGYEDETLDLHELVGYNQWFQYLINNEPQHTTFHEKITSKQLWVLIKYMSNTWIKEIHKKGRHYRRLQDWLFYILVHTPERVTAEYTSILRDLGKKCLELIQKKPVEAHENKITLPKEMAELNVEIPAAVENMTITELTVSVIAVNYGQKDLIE

[4] = molecular target: B6; assay: pull-down
[5] = molecular target: B5; assay: SEC
[6] = molecular target: T3, D1/D2/F/E/G pentamer (5Sm) (S. cerevisiae, UniProt Q02260 1-109; Q06217 1-110; P54999 1-86; Q12330 1-94; P40204 1-77); assay: SEC
T3 sequence (looked up) 1: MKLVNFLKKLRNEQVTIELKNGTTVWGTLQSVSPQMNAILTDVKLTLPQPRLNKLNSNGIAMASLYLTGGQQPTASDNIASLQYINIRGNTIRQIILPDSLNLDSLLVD
T3 sequence (looked up) 2: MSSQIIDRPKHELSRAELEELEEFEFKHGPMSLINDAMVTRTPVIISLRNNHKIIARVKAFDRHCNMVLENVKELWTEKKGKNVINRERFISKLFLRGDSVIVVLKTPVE
T3 sequence (looked up) 3: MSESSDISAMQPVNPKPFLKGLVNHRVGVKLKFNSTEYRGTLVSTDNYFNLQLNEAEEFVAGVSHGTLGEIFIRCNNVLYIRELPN
T3 sequence (looked up) 4: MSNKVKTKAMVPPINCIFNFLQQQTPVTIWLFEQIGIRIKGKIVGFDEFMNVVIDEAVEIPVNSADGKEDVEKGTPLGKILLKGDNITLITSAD
T3 sequence (looked up) 5: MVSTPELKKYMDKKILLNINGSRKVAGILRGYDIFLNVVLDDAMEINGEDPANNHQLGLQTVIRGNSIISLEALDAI

Brr1/5Sm heterohexamer = molecular target: T4, Brr1/5Sm heterohexamer (S. cerevisiae, UniProt Q99177 1-341; Q02260 1-109; Q06217 1-110; P54999 1-86; Q12330 1-94; P40204 1-77); assay: SEC
T4 sequence (looked up) 1: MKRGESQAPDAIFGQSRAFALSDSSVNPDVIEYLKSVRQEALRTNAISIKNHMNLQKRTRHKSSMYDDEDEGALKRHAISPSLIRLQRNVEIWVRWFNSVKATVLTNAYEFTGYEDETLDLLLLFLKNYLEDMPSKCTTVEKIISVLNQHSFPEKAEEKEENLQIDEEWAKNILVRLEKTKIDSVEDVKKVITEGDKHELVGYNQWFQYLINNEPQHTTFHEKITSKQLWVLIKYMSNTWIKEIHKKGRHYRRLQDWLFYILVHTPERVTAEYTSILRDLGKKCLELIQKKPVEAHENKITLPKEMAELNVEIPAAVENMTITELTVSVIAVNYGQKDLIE
T4 sequence (looked up) 2: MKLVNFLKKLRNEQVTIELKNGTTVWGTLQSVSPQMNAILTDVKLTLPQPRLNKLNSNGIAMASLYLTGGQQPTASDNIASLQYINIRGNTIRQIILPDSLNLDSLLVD
T4 sequence (looked up) 3: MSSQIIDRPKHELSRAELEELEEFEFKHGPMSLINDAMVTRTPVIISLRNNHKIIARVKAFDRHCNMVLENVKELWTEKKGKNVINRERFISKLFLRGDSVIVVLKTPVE
T4 sequence (looked up) 4: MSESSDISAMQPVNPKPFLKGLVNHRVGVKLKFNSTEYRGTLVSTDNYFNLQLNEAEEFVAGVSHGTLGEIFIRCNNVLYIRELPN
T4 sequence (looked up) 5: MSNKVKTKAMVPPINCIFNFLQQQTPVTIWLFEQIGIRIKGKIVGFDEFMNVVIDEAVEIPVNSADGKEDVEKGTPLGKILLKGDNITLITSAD
T4 sequence (looked up) 6: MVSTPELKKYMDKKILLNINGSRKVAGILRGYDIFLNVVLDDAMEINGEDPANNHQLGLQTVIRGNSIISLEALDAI

[7] = molecular target: T3, D1/D2/F/E/G pentamer (5Sm); assay: pull-down

B1: SmD3/B subcomplex, HT-tag removed (complex, S. cerevisiae)
chain 1: MSKIQVAHSSRLANLIDYKLRVLTQDGRVYIGQLMAFDKHMNLVLNECIEERVPKTQLDKLRPRKDSKDGTTLNIKVEKRVLGLTILRGEQILSTVVEDKPLLSK
chain 2: MTMNGIPVKLLNEAQGHIVSLELTTGATYRGKLVESEDSMNVQLRDVIATEPQGAVTHMDQIFVRGSQIKFIVVPDLLKNAPLFKKNS
[1]
  binding result: binds
[2]
  binding result: binds

B2: SmD1/D2 subcomplex, HT-tag removed (complex, S. cerevisiae)
chain 1: MKLVNFLKKLRNEQVTIELKNGTTVWGTLQSVSPQMNAILTDVKLTLPQPRLNKLNSNGIAMASLYLTGGQQPTASDNIASLQYINIRGNTIRQIILPDSLNLDSLLVD
chain 2: MSSQIIDRPKHELSRAELEELEEFEFKHGPMSLINDAMVTRTPVIISLRNNHKIIARVKAFDRHCNMVLENVKELWTEKKGKNVINRERFISKLFLRGDSVIVVLKTPVE
[1]
  binding result: binds
[2]
  binding result: binds

B3: SmF/E/G subcomplex, HT-tag removed (complex, S. cerevisiae)
chain 1: MSESSDISAMQPVNPKPFLKGLVNHRVGVKLKFNSTEYRGTLVSTDNYFNLQLNEAEEFVAGVSHGTLGEIFIRCNNVLYIRELPN
chain 2: MSNKVKTKAMVPPINCIFNFLQQQTPVTIWLFEQIGIRIKGKIVGFDEFMNVVIDEAVEIPVNSADGKEDVEKGTPLGKILLKGDNITLITSAD
chain 3: MVSTPELKKYMDKKILLNINGSRKVAGILRGYDIFLNVVLDDAMEINGEDPANNHQLGLQTVIRGNSIISLEALDAI
[3]
  binding result: binds
[4]
  binding result: binds
[5]
  binding result: binds

## B4
[6]
  binding result: binds
Brr1/5Sm heterohexamer
  binding result: binds

## B5
[6]
  binding result: binds

## B6
[7]
  binding result: binds
